Data set [1] relates to MS2 coat protein. As to the kind of experiment: apparent KD of MS2 coat protein, switch ON state; designed switch direction (-1 OFF switch, 1 ON switch): 1; higher = weaker reporter binding. The settings on record: FMN input: 0 or 200 uM; Eterna round: R93 (includes R88 designs). A digest of the protocol: (§1)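 Apparent KD was obtained for each design as the median of normalised binding-curve fits over its clusters. RNA switches transcribed on-chip from Illumina sequencing clusters were titrated with SNAP-549-labelled MS2 coat protein (twofold steps, 0.7 or 1.5 nM to 3 µM) in 100 mM Tris-HCl pH 7.5, 80 mM KCl, 4 mM MgCl2, without or with constant ligand.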

Data set [2] relates to MS2 coat protein. Briefly: apparent KD of MS2 coat protein, switch OFF state (with FMN for OFF switches, without FMN for ON switches); designed switch direction (-1 OFF switch, 1 ON switch): 1; higher = weaker reporter binding. The note with it: FMN input: 0 or 200 uM; Eterna round: R93 (includes R88 designs). The gist of the method: as §1

Regarding “AUAUGAGCUAAUGAGGAUAUCCAUAAUAAGACAUGAGGAUCACCCAUGUAAACAAAACAAUAAUGGGAGAAGGCAUUAGCUCAAU [SS 2 M49]”, the “apparent KD of MS2 coat protein” value in data set [1] stood at 45.7 nM; in data set [2], 58.8 nM.
The like results for “AUAUGAGCUAUGGAGGAUAUCCAUAAUAAAACAUGAGGAUCACCCAUGUAAGAAAGAAAAGAAUGGGAGAAGGCCAUAGCUCAAU [SS 2 M44]” were, in that order, 11.6 nM and 13.1 nM.
Take “AUGAGGAAGAGAGAGGAUAUCCAAAGGAAAACAUGAGGAUCACCCAUGUAAAAGGUAGGAAAUUGGGAGAAGGCUCAAGAGAGAG [salish99-ss2-065]”: the figures for the “apparent KD of MS2 coat protein” value in data set [1] and in data set [2] were 23.4 nM and 44.7 nM, respectively.
For “AUGGUGUAGGUACAGGAUAUGUUGCUCGUAACAUGAGGAUCACCCAUGUACCUAUGAGAUUAAAUGCAGAAGGGUGCACACCACG [Usbivece]”, the “apparent KD of MS2 coat protein” value in data set [1] amounted to 70.1 nM; in data set [2], 35.5 nM.
As to “AUUAAACAUGAGGAUCACCCAUGUGGCAAAAGCACAGGAUAUAGGAGUCCGAGCAGACAACUAGAAGGGUGGAAAA [Rixelexe]”, the “apparent KD of MS2 coat protein” value in data set [1] came to 28.8 nM; in data set [2], 53.7 nM.
In the same order, the values of “CAAACAACAACACAGGAUAUACAUAUAAUAACAUGAGGAUCACCCAUGUAAGGCAAAAAUAAGCUGUAGAAGGGUGAACACACAA [Default title]” are 10.6 nM and 14.1 nM.
With “CAGAAGGAGAGAGAGGAUAUCCAAAGGAAAACAUGAGGAUCACCCAUGUAAAAGGUAGGAAAUUGGGAGAAGGCUCAAGAGAGAG [salish99-ss2-110]”, the “apparent KD of MS2 coat protein” value in data set [1] was 33.2 nM; in data set [2] it was 33.3 nM.
Consider “CAGAGACAUGAGGAUCACCCAUGUAGGAUUAUGGGAGGAUAUACAAAGACGAGAGUCAGAGUAGAAGGCCUAGGAU [salish99-ss1-142]”, for which the “apparent KD of MS2 coat protein” value in data set [1] stood at 21.2 nM; in data set [2], 52.7 nM.
In the same order, the values of “CGAAGACAUGAGGAUCACCCAUGUGGGAAUAUGGGAGGAUAUACAAAGACGAGAGUCAGAGUAGAAGGCCUAGGAG [salish99-ss1-106]” are 40.2 nM and 59.3 nM.
Regarding “CUGGACAUAGUACAGGAUAUAUGAAUAGUCACAUGAGGAUCACCCAUGUGCAUUUAUAUGCGCACAUAGAAGGGUGGUAGUUAAG [Mat - Same state - Malcolm Mod - D140]”, the “apparent KD of MS2 coat protein” value in data set [1] turned out to be 180 nM; in data set [2], 57.9 nM.
As to “GAAAAACAUGAGGAUCACCCAUGUAAAAAAAUGGGAGGAUAUACAAAGACGAAAGUCAAAGUAGAAGGCCUGAAAG [same state 2]”, the “apparent KD of MS2 coat protein” value in data set [1] came to 18 nM; in data set [2] it was 81.8 nM.
Consider “GAAAAACAUGAGGAUCACCCAUGUAAGAUAAACACAGGAUAUGCGAAAAGAAACAAAGAAGCAGAAGGGUGAAGAA [Mat - Same State 1 - Tesla mod - 46]”, for which the “apparent KD of MS2 coat protein” value in data set [1] was 18 nM; in data set [2], 30.2 nM.
The like results for “GAAAAACAUGAGGAUCACCCAUGUAGAAAUAUGGGAGGAUAUACAAAGACGGAAGUCAAAGUAGAAGGCCUAAAAG [Mat - Same State 1 - Eli mod - D7]” were, in that order, 27.9 nM and 71.2 nM.
“GAAAAACAUGAGGAUCACCCAUGUAGAAAUAUGGGAGGAUAUACAAAGACGUAAGUCAAAGUAGAAGGCCUAAAAG [Mat - Same State 1 - Eli mod - D8]”: the “apparent KD of MS2 coat protein” value in data set [1] is 19.1 nM; in data set [2], 76.9 nM.
For the sequence “GAAAAACAUGAGGAUCACCCAUGUAGAAAUAUGGGAGGAUAUACAAUGACGAAAGUCAAUGUAGAAGGCCUGAUAG [JL S1 M-MoE mod 4]”, the “apparent KD of MS2 coat protein” value in data set [1] is 25.7 nM; in data set [2] it was 74.2 nM.
In the case of “GAAAAACAUGAGGAUCACCCAUGUAGAAAUAUGGGAGGAUAUACGAACUCGAAAGUCAAAGUAGAAGGCCUAAAAG [Garnet 30]”, the “apparent KD of MS2 coat protein” value in data set [1] was found to be 47 nM; in data set [2], 130 nM.
With “GAAAAACAUGAGGAUCACCCAUGUGAAAAUAUGGGAGGAUAUACGAAGUCGAAAGUCAGAGUAGAAGGCCUAAAAG [Garnet 33]”, the “apparent KD of MS2 coat protein” value in data set [1] stood at 26.7 nM; in data set [2], 73.3 nM.
As to “GAAAAACAUGAGGAUCACCCAUGUGAAAAUAUGGGAGGAUAUACUAAGACGAAAGUCGAGGUAGAAGGCCUAAAAG [Same State 1.4h (Mat - Mod of Eli - )]”, the entries for the “apparent KD of MS2 coat protein” value in data set [1] and in data set [2] were 24.7 nM and 131 nM, respectively.
Consider “GAAAAACAUGAGGAUCACCCAUGUGUAAACACGGGAGGAUAUACAAAGACGUAAGUCAAAGUAGAAGGCCUAAAAG [Garnet 39]”, for which the “apparent KD of MS2 coat protein” value in data set [1] is 26.7 nM; in data set [2] it was 96.5 nM.
In the same order, the values of “GAAAAACAUGAGGAUCACCCAUGUGUAAAUAUGGAAGGAUAUACAAAGACGGAAGUCAAAGUAGAAGGUCUAAAAG [Mat - Same State 1 - Eli mod - D18]” are 24.5 nM and 30.3 nM.
On to “GAAAAACAUGAGGAUCACCCAUGUUAAUAUAUGGGAGGAUAUACAAAGACGAAAGUCAAAGUAGAAGGCCUAAAAG”, for which the “apparent KD of MS2 coat protein” value in data set [1] amounted to 19.7 nM; in data set [2], 43.3 nM.
For “GACGGACAUGAGGAUCACCCAUGUCGGAAAAGGCAAGGAUAUGGGCGGUACCAAUUUCGGUCAGAAGGUGCAAAAG [Beenedriar]”, the “apparent KD of MS2 coat protein” value was 117 nM in data set [1] and 61 nM in data set [2].
For the sequence “GAGGACAUAGUAUAGGAUAUAUGAAUAAUUACAUGAGGAUCACCCAUGUGCAUUUAUAUGCGAACAUAGAAGGGUGGUAGUUAUC [SameState2 Malc#32]”, the “apparent KD of MS2 coat protein” value amounted to 41.6 nM in data set [1] and 37 nM in data set [2].
For “GAGGACAUAGUUCAGGAUAUAUGAAUAGUCACAUGAGGAUCACCCAUGUCCAUUUAUAUGGGCACAUAGAAGGGAGGUAGUUAUC [SameState2 Malc#26]”, the “apparent KD of MS2 coat protein” value stood at 205 nM in data set [1] and 417 nM in data set [2].
On to “GCAGGGCUACACUAGGAUAUGGGUGUCUAAACAUGAGGAUCACCCAUGUGAUGGCAAAACAAAGCUCAGAAGGAGUCGUAGCCCA [Bebirare]”, for which the “apparent KD of MS2 coat protein” value came to 14 nM in data set [1] and 24.3 nM in data set [2].
Consider “GGAGCCGGCACUGAGGAUAUUCAUAUUAAAACAUGAGGAUCACCCAUGUAGGCCAGAAGGCCUUGGGAGAAGGCAGGUCGGCCCG [Bibimaor]”, for which the “apparent KD of MS2 coat protein” value was determined as 18.5 nM in data set [1] and 252 nM in data set [2].
In the case of “GGAUAACAUGAGGAUCACCCAUGUACAUGGGUACAAGGAUAUGUAAAAUAAAACAAACAAACAGAAGGUGUAAAAA [I'm in a state]”, the “apparent KD of MS2 coat protein” value was determined as 228 nM in data set [1] and 163 nM in data set [2].
Take “GGGAGACAUGAGGAUCACCCAUGUGAAAACGUGUGAGGAUAUCUAUGGAAACCAUACUGUAGAGAAGGCACUUGUC [Servius Sulpicius Similis]”: the “apparent KD of MS2 coat protein” value in data set [1] came out at 45.4 nM; in data set [2], 125 nM.
As for “GGGAGACAUGAGGAUCACCCAUGUGAGAAGAGGCGAGGAUAUCGAAAAAAAAAAAAAAAACGAGAAGGCGCGAGAU [salish99-SS1-004]”, the “apparent KD of MS2 coat protein” value in data set [1] stood at 74.4 nM; in data set [2], 300 nM.
In the same order, the values of “GGGAGGAAGAGAGAGGAUAUCCAAAGGAAAACAUGAGGAUCACCCAUGUAAAAGGUAGGAAAUUGGGAGAAGGCUCAAAAGAGGG [salish99-ss2-038]” are 29.8 nM and 40.6 nM.
On to “GGUCGACAUGAGGAUCACCCAUGUAAGCCAAGGCAAGGAUAUGGGUAUAGGGUGCUAGGAUUAGAAGGUGCCAAAA [Soredige]”, for which the “apparent KD of MS2 coat protein” value in data set [1] worked out at 87.1 nM; in data set [2], 82.8 nM.
On to “GUAGACAUAGUUCAGGAUAUAUGAAUAGUCACAUGAGGAUCACCCAUGUGCAUUUAUAUGCGCACAUAGAAGGGAGGUAGUUAAC [Mat - Same state - Malcolm Mod - D122]”, for which the results for the “apparent KD of MS2 coat protein” value in data set [1] and in data set [2] were 22.3 nM and 20.7 nM, respectively.
Consider “GUCAGGAAGAGAGAGGAUAUCCAAAGGAAAACAUGAGGAUCACCCAUGUAAAAGGUAGGAAAUUGGGAGAAGGCUCAAGAGAGAG [salish99-ss2-095]”, for which the “apparent KD of MS2 coat protein” value in data set [1] came to 31.5 nM; in data set [2], 48.8 nM.
As to “GUUAGGAAGAGAGAGGAUAUCCAAAGGAAAACAUGAGGAUCACCCAUGUAAAAGGUAGGAAAUUGGGAGAAGGCUCAAGAGAGAG [salish99-ss2-079]”, the “apparent KD of MS2 coat protein” value amounted to 31.9 nM in data set [1] and 37.5 nM in data set [2].
On to “GUUGAACAUGAGGAUCACCCAUGUCUCAACAGUCAAGGAUAUGGGUCAUGCAGAUGAAUACCAGAAGGUGAAUAAA [Zaorxe]”, for which the “apparent KD of MS2 coat protein” value was determined as 15.8 nM in data set [1] and 33.6 nM in data set [2].
Regarding “UAAAAACAUGAGGAUCACCCAUGUAGAAAUAUGGGAGGAUAUACGAAGACGAAAGUCAAAGUAGAAGGCCUAAAAU [Mat - Same State 1 - Eli mod - D104]”, the entries for the “apparent KD of MS2 coat protein” value in data set [1] and in data set [2] were 21.8 nM and 58 nM, respectively.
Consider “UAAUAAUAAACCAAGGAUAUGGAGUUUCCAACAUGAGGAUCACCCAUGUUUAGCAUGAAAUCGAACCAGAAGGUGGAGCCAAAUA [JR_SS002_Sub1004]”, for which the “apparent KD of MS2 coat protein” value in data set [1] was 10.8 nM; in data set [2] it was 42.5 nM.
Turning to “UACAGACAUGAGGAUCACCCAUGUAGAAUUAUGGGAGGAUAUACAAAGACGAGAGUCAGAGUAGAAGGCCUAGGAA [salish99-ss1-164]”, the “apparent KD of MS2 coat protein” value amounted to 24 nM in data set [1] and 64.6 nM in data set [2].
Consider “UAUCAUUACACGAAGGAUAUCGAUAAUUGAACAUGAGGAUCACCCAUGUGCCAUCCCUUACAGUUCGAGAAGGUCGAGGGUGAAG [JR_SS002_Sub707]”, for which the “apparent KD of MS2 coat protein” value came to 142 nM in data set [1] and 299 nM in data set [2].

These data come from the supplement of paper PMC9170038.
